Experiments:
[1] = system: Tau 4R2N (amino acids 335-353) peptide substrate; assay: Peptide digest HPLC assay of tau protease activity; format: biochemical, human; conditions: oligomerized truncated tau, 37° C., overnight (TP-210) or 44 hr (TP-99)
Excerpt: N-terminal sequencing of fragments using mass spectrometry identified autoproteolytic cut sites. In particular, cutting at the Lys340-Ser341 (340KS341) cut site occurred readily. Therefore, a 19-amino acid peptide corresponding to amino acids 335G to 353L of tau protein was synthesized that contained the KS cut site (340KS341). The reaction was monitored by reverse-phase high-pressure liquid chromatography (HPLC). […] An asterisk marks a non-specific contaminant that was used as a marker. […] 10 μg of tau peptide 335-353 ([…]) (SEQ ID NO:19) was custom synthesized by Genscript (Piscataway, N.J., USA) and 1 mg was dissolved in 1 mL of buffer (25 mM Tris-HCl pH 7.4). […] 32Karat™ LC-CE System, Beckman Coulter, Inc., (Indianapolis, Ind.)] using a linear gradient of acetonitrile in 0.1% TFA 0-60% acetonitrile on an analytical C18 column (12.5 cm×2.1 mm, 5 μm, (Supelco, Bellefonte, Pa., USA). 30 μg of peptide was incubated without tau protease as a negative control and analyzed with the same method;
Cleavage of the peptide substrate for tau protease, Tau 4R2N (amino acids 335-353) […] (SEQ ID NO.19), was used to monitor activity using reverse-phase HPLC. […] The large peak in the lower trace indicated intact peptide was greatly diminished in the upper trace and replaced with two smaller peaks F1 and F2 that represent fragments generated by TP-210. […]

[2] = Tau protease enzymatic activity of truncated tau peptides (general statement); format: biochemical
[3] = system: tau FRET peptide; assay: FRET assay of tau protease activity; format: biochemical; conditions: 10, 25 or 50 μg oligomerized protein, 2.5 μg FRET peptide, 17 hrs at 37° C.
Excerpt: The FRET assay peptide substrate is composed of nine amino acids surrounding the autoproteolytic cut site after Lys 340 in tau 4R2N with the fluorescent molecule methylcoumarin (MCA) at the amino terminus and the fluorescence quenching molecule dinitrophenol (DNP) at the C-terminus using an additional Lys at the C-terminus to conjugate it to the peptide: MCA-[…]-{Lys(DNP} (SEQ ID NO:18). The concept is that when tau protease cuts the peptide the quench is dissociated from the fluor such that there is a detectable increase in the fluorescence signal in the assay. This assay can be used to monitor tau protease activity to screen small molecule compounds, peptides or antibodies that modulate tau protease activity. This assay can also be used to characterize enzyme kinetics and optimize the buffer conditions for tau protease. […]
A FRET assay was conducted to determine if the Tau 4R2N 260-340 construct has protease activity using the tau FRET peptide described in FIG. 22 and FIG. 23. […] To determine the background values for the wells of the 96-well plate 95 microliter of buffer was added to the wells of a black 96-well Microfluor I plate (ThermoFisher Scientific) and an EnVision plate reader was used to determine signal (as described in FIG. 23). 5 μL of each sample was mixed with the buffer in the wells and the signal was determined. […]

Row | Molecule | protease activity on tau peptide 335-353 (HPLC) [1] | tau protease enzymatic activity [2] | cutting of tau FRET peptide [3]
1 | TP-210: 210-aa fragment of tau protein, amino acids 131-340 of tau 4R2N plus initiating methionine (SEQ ID NO:1) (protein, listed as Homo sapiens) MSKDGTGSDDKKAKGADGKTKIATPRGAAPPGQKGQANATRIPAKTPPAPKTPPSSGEPPKSGDRSGYSSPGSPGTPGSRSRTPSLPTPPTREPKKVAVVRTPPKSPSSAKSRLQTAPVPMPDLKNVKSKIGSTENLKHQPGGGKVQIINKKLDLSNVQSKCGSKDNIKHVPGGGSVQIVYKPVDLSKVTSKCGSLGNIHHKPGGGQVEVK | retained proteolytic activity | retain tau protease enzymatic activity | 
2 | TP-99: 99-amino acid fragment of tau 4R2N, amino acids 241-340, plus initiating methionine (SEQ ID NO:3) (protein) MRLQTAPVPMPDLKNVKSKIGSTENLKHQPGGGKVQIINKKLDLSNVQSKCGSKDNIKHVPGGGSVQIVYKPVDLSKVTSKCGSLGNIHHKPGGGQVEVK | showed protease activity | retain tau protease enzymatic activity | 
3 | TP-83: 83 amino acid truncated tau peptide, 4R2N 258-340 (SEQ ID NO:4) (protein, listed as Homo sapiens) MSKIGSTENLKHQPGGGKVQIINKKLDLSNVQSKCGSKDNIKHVPGGGSVQIVYKPVDLSKVTSKCGSLGNIHHKPGGGQVEVK |  | retain tau protease enzymatic activity | 
4 | TP-81: 81 amino acid truncated tau peptide, 4R2N 260-340 (SEQ ID NO:5) (protein, listed as Homo sapiens) MIGSTENLKHQPGGGKVQIINKKLDLSNVQSKCGSKDNIKHVPGGGSVQIVYKPVDLSKVTSKCGSLGNIHHKPGGGQVEVK |  | retain tau protease enzymatic activity | cuts tau FRET peptide

Source: patent US10597649B2, “Tau protease compositions and methods of use” (Oligomerix, Inc., priority 2011, dated 2020)
